Experiments:
[1] = tested on: S366 peptide (STING peptide substrate with serine 366)
[2] = tested on: A366 peptide (STING peptide substrate with alanine at 366)

Row | Substance | Activity (cpm) [1] [cpm] | Fold induction [1] [fold] | Activity (cpm) [2] [cpm]
1 | CK1δ | 25200 | 1.62 | 15600
2 | NEK6 | 35600 | 6.45 | 5510
3 | NEK7 | 19100 | 5.28 | 3620
4 | PIM2 | 3720 | 2.63 | 1410

Source: US20130039933
